Results on six substances are retold here after patent US20160238596.

This data set has as its system Indicator molecule containing the cleavable sequence GPQGIFGQ with a terminal biotin group connected via a polyethylene glycol spacer/linker (intact).

Active MMP-9 (Alere San Diego), sequence (chain, as listed by the source): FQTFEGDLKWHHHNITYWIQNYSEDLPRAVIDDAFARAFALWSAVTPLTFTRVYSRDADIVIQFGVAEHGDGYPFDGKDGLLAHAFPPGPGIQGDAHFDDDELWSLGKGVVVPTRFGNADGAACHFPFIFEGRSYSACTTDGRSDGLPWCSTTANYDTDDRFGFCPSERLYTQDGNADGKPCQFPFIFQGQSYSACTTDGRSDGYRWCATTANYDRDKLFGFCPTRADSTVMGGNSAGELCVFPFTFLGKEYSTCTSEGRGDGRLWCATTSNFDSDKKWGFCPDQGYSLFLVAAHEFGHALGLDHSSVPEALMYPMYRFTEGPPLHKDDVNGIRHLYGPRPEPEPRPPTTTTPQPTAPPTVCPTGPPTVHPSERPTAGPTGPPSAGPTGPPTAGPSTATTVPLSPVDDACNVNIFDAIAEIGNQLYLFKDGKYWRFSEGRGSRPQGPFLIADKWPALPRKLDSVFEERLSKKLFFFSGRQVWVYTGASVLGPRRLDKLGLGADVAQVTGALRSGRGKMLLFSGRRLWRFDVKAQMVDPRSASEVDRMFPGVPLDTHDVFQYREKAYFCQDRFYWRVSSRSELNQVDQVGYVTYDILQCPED
MMP 2 (Enzo), sequence (chain, as listed by the source): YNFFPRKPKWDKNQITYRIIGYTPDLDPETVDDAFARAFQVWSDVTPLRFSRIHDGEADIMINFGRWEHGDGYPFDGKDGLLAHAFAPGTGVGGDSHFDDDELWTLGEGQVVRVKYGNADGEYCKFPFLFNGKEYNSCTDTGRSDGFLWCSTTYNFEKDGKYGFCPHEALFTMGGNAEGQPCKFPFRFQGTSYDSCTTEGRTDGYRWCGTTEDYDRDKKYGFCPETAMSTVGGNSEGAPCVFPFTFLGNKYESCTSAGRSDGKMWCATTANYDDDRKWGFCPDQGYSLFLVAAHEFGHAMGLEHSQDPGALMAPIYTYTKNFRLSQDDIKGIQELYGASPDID
MMP 3 (Enzo), sequence (chain, as listed by the source): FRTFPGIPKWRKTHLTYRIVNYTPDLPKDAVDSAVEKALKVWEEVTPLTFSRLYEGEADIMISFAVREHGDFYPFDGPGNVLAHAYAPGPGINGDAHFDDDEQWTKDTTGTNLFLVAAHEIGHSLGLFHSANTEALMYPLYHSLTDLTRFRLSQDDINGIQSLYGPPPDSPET
MMP 10 (Enzo), sequence (chain, as listed by the source): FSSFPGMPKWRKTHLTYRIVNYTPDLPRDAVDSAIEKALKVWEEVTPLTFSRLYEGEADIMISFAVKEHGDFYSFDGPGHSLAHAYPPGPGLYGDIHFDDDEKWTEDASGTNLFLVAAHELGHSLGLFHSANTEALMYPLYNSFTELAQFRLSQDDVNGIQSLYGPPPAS
MMP 9 (Enzo), sequence (chain, as listed by the source): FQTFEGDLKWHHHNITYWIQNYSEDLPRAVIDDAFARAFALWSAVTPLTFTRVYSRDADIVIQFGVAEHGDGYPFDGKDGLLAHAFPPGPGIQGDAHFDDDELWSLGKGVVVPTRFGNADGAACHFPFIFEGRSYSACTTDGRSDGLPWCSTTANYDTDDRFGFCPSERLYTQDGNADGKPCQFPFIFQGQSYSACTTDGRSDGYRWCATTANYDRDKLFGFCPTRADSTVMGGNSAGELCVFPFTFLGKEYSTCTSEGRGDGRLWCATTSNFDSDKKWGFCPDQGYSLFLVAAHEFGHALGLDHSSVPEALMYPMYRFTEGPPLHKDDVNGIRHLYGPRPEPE
MMP 8 (Enzo), sequence (chain, as listed by the source): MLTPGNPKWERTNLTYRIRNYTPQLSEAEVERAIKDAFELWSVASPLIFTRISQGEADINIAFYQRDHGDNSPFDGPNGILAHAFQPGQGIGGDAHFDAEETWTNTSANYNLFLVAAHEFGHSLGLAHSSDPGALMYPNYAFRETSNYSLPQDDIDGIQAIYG

Active MMP-9 (Alere San Diego): the OD405 (streptavidin plate ELISA with CF1522-AP) at 0.39 ng/ml MMP9 was 0.14 OD405, the OD405 (streptavidin plate ELISA with CF1522-AP) at 0.78 ng/ml MMP9 was determined as 0.14 OD405, the OD405 (streptavidin plate ELISA with CF1522-AP) at 1.56 ng/ml MMP9 is 0.14 OD405 and the OD405 (streptavidin plate ELISA with CF1522-AP) at 3.13 ng/ml MMP9 turned out to be 0.13 OD405. The substance further returned an OD405 (streptavidin plate ELISA with CF1522-AP) at 6.25 ng/ml MMP9 of 0.17 OD405, an OD405 (streptavidin plate ELISA with CF1522-AP) at 12.50 ng/ml MMP9 of 0.18 OD405, an OD405 (streptavidin plate ELISA with CF1522-AP) at 25.00 ng/ml MMP9 of 0.27 OD405 and an OD405 (streptavidin plate ELISA with CF1522-AP) at 50.00 ng/ml MMP9 of 0.5 OD405. Also, the “detectable limit for MMP-9 (lateral flow, sample volume of 75 µl)” value is “approximately 4 ng/ml”; the reader value (lateral flow, CF1522 gold) at 0.9765625 ng/ml MMP9 worked out at 338 reader units; the reader value (lateral flow, CF1522 gold) at 1.953125 ng/ml MMP9 was 343 reader units; the reader value (lateral flow, CF1522 gold) at 3.90625 ng/ml MMP9 came to 413 reader units. The substance further displayed a reader value (lateral flow, CF1522 gold) at 7.8125 ng/ml MMP9 of 524 reader units; a reader value (lateral flow, CF1522 gold) at 15.625 ng/ml MMP9 of 882 reader units; a reader value (lateral flow, CF1522 gold) at 31.25 ng/ml MMP9 of 2030 reader units; a reader value (lateral flow, CF1522 gold) at 62.5 ng/ml MMP9 of 3830 reader units. Further, the reader value (lateral flow, CF1522 gold) at 125 ng/ml MMP9 stood at 5580 reader units; the reader value (lateral flow, CF1522 gold) at 250 ng/ml MMP9 was 6220 reader units; the reader value (lateral flow, CF1522 gold) at 500 ng/ml MMP9 was 6730 reader units; the reader value (lateral flow, CF1522 gold) at 1000 ng/ml MMP9 stood at 6770 reader units. The “sensitivity of the MMP9 standard curves (ELISA and Lateral Flow)” value was “sensitivity down to 4 ng/ml”.
MMP 2 (Enzo) returned a Reader value (lateral flow, CF1522 gold) at 0.5 µg/ml MMP of 1610 reader units.
The same measure, in the same setting: then MMP 3 (Enzo), with 336 reader units.
MMP 8 (Enzo) showed a Reader value (lateral flow, CF1522 gold) at 0.5 µg/ml MMP of 1140 reader units.
Still for that read-out and setting: then MMP 9 (Enzo), with 3840 reader units.
The same measure, in the same setting: for MMP 10 (Enzo) the value was 444 reader units.
